Measurements as given in US12522656B2, “Anti-G-protein alpha antibody” (CISBIO BIOASSAYS, priority 2020, dated 2026).

Columns and labels:
Delta Opioid GPCR = Delta Opioid GPCR (Homo sapiens, UniProt P41143); assay: Activation assay format 2A on Delta Opioid GPCR, agonist/antagonist modulation of TR-FRET signal; settings: fixed SNC162 200 nM; increasing concentration of antagonist; GTPgN-octyl-C2 + DSV36S-d2; FIG. 16B
DOR receptors = molecular target: T1, DOR receptors (Homo sapiens, UniProt P41143); assay: Activation of DOR in HEK293 membranes read by TR-FRET (fluorescent GTP analog + labeled antibody); type: biochemical; settings: SNC162 10 μM; read as increase of FRET signal with DSV36S-d2 / DSV38S-d2
T1 construct: expressed in transfected cells; host or cells: HEK293 membranes
Description: (§1) HEK293 membranes expressing the DOR receptor were prepared 4× for a final amount in the wells of 10 μg. The antibodies DSV36S-d2, DSV38S-d2, SC13533-d2 and anti-FLAG-d2 were prepared 4× for a final concentration in the wells of 10 nM.
(§2) The reagents were distributed in the 384-well plates as follows: • 1) 5 μl of DOR membranes was put in each well, • 2) 5 μl of GTPgN-octyl-C2 labeled with europium cryptate or GTPgO-linker-Cy5 was added to each well, • 3) 5 μl of antibody DSV36S or DSV38S or SC13533 or DSV 26S or DSV3S or DSV 39S labeled with d2 or DSV 36S or SC13533 labeled with terbium cryptate was added to each well, • 4) 5 μl of buffer or SNC 162 or GTPgS was added to each well.
(§3) The plates were incubated for 20 h at room temperature before reading the HTRF signal.

Gα13 = molecular target: T2, Gα13 (Homo sapiens, UniProt Q14344); assay: HTRF selectivity assay, G-protein α overexpressed in HEK293 cells; type: binding; settings: antibody-d2 10 nM, 20 h
T2 sequence (Q14344 1-377): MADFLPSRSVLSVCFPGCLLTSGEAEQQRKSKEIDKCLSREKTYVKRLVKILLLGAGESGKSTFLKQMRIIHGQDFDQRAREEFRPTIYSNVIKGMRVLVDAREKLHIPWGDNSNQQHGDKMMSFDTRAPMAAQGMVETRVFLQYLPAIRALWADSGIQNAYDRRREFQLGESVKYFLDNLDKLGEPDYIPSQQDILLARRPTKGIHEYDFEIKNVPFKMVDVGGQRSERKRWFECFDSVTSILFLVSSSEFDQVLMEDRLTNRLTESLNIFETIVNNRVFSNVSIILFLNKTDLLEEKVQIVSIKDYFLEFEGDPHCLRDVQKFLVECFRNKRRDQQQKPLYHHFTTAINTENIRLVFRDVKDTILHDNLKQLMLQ
Description: (§4) A solution containing 1 million HEK cells/ml was prepared in OptiMEM medium. Mixtures of plasmids/Lipofectamine containing 150 ng/well of plasmids and 0.375 μl of lipofectamine were prepared in OptiMEM medium 30 minutes before adding them to the 96-well plate with black-bottomed wells.
(§5) Distribution of the reagents in each well of the black microplate suitable for cell culture: • 1) 50 μl per well of polyornithine was incubated for 30 minutes at room temperature and then the solution was withdrawn from each well by aspiration. • 2) 50 μl of the preparation of HEK293 (cell density of 50000 cells per well) was added to each well • 3) 50 μl of the mixture of plasmids coding for a G-protein+lipofectamine was added to each well.
(§6) The microplates were incubated for 24 h at 37° C. and 5% CO2 (regulated stove).
(§7) The antibodies DSV36S-d2, DSV38S-d2 and SC13533-d2 were prepared 4× for a final concentration in the wells of 10 nM.
(§8) The reagents were distributed on the 384-well plates as follows: • 1) The OptiMEM culture medium was aspirated, • 2) 25 μl of buffer or GDP or GTP was added to each well, • 3) 25 μl of buffer was added to each well, • 4) 25 μl of antibody DSV36S-d2 or DSV38S-d2 or SC13533-d2 or anti-FLAG-d2 was added to each well, • 5) 25 μl of anti Twin-Strep-tag-Lumi4 Tb antibody was added to each well.
(§9) The microplates were incubated for 20 h at room temperature before reading the HTRF signal.

Gα12 = molecular target: T3, Gα12 (Homo sapiens, UniProt Q03113); assay: as above; type: binding; settings: antibody-d2 10 nM, 20 h
T3 construct: host or cells: HEK293
T3 sequence (Q03113 1-381): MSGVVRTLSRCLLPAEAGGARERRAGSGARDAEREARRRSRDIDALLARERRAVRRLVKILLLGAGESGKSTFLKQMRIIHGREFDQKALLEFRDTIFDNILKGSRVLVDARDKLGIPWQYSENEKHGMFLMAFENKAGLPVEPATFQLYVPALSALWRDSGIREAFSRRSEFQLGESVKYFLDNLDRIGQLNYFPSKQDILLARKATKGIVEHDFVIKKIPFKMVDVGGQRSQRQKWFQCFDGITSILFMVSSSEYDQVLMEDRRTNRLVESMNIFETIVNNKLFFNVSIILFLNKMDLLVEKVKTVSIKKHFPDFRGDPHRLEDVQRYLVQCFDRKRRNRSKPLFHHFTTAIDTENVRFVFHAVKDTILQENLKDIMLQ
Description: as §4, §5, §6, §7, §8, §9

Gαi1 [1] = molecular target: T4, Gαi1 (Homo sapiens, UniProt P63096); assay: as above; type: binding; settings: antibody-d2 10 nM, 20 h
Description: as §4, §5, §6, §7, §8, §9

Gαs = Gαs (Homo sapiens, UniProt P63092); assay: as above; type: binding; settings: antibody-d2 10 nM, 20 h
Description: as §4, §5, §6, §7, §8, §9

Gαi2 = Gαi2 (Homo sapiens, UniProt P04899); assay: as above; type: binding; settings: antibody-d2 10 nM, 20 h
Description: as §4, §5, §6, §7, §8, §9

Gαi3 = molecular target: T5, Gαi3 (Homo sapiens, UniProt P08754); assay: as above; type: binding; settings: antibody-d2 10 nM, 20 h
T5 construct: host or cells: HEK293
Description: as §4, §5, §6, §7, §8, §9

Gαq = molecular target: T6, Gαq (Homo sapiens, UniProt P50148); assay: as above; type: binding; settings: antibody-d2 10 nM, 20 h
T6 sequence (P50148 1-359): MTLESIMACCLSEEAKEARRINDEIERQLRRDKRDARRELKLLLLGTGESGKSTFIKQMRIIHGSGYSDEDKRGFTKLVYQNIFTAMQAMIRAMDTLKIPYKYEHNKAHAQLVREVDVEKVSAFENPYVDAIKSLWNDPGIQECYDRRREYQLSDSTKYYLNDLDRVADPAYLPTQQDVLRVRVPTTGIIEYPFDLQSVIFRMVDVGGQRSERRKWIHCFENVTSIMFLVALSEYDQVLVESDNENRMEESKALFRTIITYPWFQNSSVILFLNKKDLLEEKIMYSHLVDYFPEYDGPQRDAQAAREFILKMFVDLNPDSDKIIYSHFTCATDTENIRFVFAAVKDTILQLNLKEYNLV
Description: as §4, §5, §6, §7, §8, §9

Gαz = molecular target: T7, Gαz (Homo sapiens, UniProt P19086); assay: as above; type: binding; settings: antibody-d2 10 nM, 20 h
T7 construct: host or cells: HEK293
Description: as §4, §5, §6, §7, §8, §9

Gαo = Gαo (Homo sapiens, UniProt P09471); assay: as above; type: binding; settings: antibody-d2 10 nM, 20 h
Description: as §4, §5, §6, §7, §8, §9

Gαi1 [2] = molecular target: T4, Gαi1; assay: HTRF competition: unlabeled antibodies versus binding of DSV36S-d2 on G-protein αi1; settings: unlabeled antibody 0.001-1 μM; DSV36S-d2 10 nM; GTPgS 100 μM
Description: These two reagents were prepared in one and the same solution and were preincubated for 30 minutes at room temperature before being distributed in the wells. The cold antibodies DSV36S, DSV38S, DSV26S, DSV3S, and DSV39S were prepared 4× for final concentrations in the wells between 0.001 and 1 μM. The antibody DSV36S-d2 was prepared 4× for a final concentration of 10 nM.
The reagents were distributed in the 384-well plates as follows: • 1) 10 μl of the preincubated mixture of G-protein αi1+GTPgS was put in each well, • 2) 5 μl of the unlabeled antibodies DSV36S, DSV38S, DSV26S, DSV3S, and DSV39S was added to each well, • 3) The plates were incubated for 30 minutes at room temperature, • 4) 5 μl of the anti Twin-Strep-tag-Lumi4 Tb antibody and of the antibody DSV36S-d2 were added to each well.
(§10) The plates were incubated for 1 h at room temperature before reading the HTRF signal.

Gαi1 [3] = molecular target: T4, Gαi1; assay: HTRF competition: unlabeled antibodies versus binding of SC13533-d2 on G-protein αi1; settings: unlabeled antibody 0.01-100 nM; SC13533-d2 10 nM; GTPgS 10 μM
Description: These two reagents were prepared in one and the same solution and were preincubated for 30 minutes at room temperature before being distributed in the wells. The cold antibodies DSV36S, DSV38S and SC13533 were prepared 4× for final concentrations in the wells between 0.01 and 100 nM. The antibody SC 13533-d2 was prepared 4× for a final concentration of 10 nM.
The reagents were distributed in the 384-well plates as follows: • 1) 10 μl of the preincubated mixture of G-protein αi1+GTPgS was put in each well, • 2) 5 μl of the unlabeled antibody DSV36S or DSV38S or SC56536 or AM05302PU-N or SC13533 was added to each well, • 3) The plates were incubated for 30 minutes at room temperature, • 4) 5 μl of the anti Twin-Strep-tag-Lumi4 Tb antibody and of the antibody SC13533-d2 were added to each well.
as §10

G-proteins α = assay: TR-FRET signal of labeled antibody combined with fluorescent GTP analog on HEK293 membranes expressing the DOR receptor; type: binding; settings: for FRET signal with GTPgN-octyl-C2-Europium cryptate: antibody labeled with d2 10 nM, GTP analog 6 nM, FIG. 11
Description: as §1, §2, §3

Gαi1 [4] = molecular target: T4, Gαi1; assay: Determination of affinity (Kd) of d2-labeled antibodies for G-protein αi1 by HTRF/FRET; type: binding
Description: These two reagents were prepared in one and the same solution and were preincubated for 30 minutes at room temperature before being distributed in the wells. The antibodies DSV36S-d2, DSV38S-d2 and SC13533-d2 were prepared 4× for final concentrations in the wells between 0.01 and 10 nM depending on the antibodies.
The reagents were distributed in the 384-well plates as follows: • 1) 10 μl of the preincubation mixture of G-protein αi1+buffer only or GTPgS or GDP was put in each well, • 2) 5 μl of the antibody DSV36S or DSV38S or SC13533 labeled with d2 was added to each well, • 3) 5 μl of the anti Twin-Strep-tag-Lumi4 Tb antibody was added to each well.
The plates were incubated for 24 h at room temperature before reading the HTRF signal.
Moreover, the antibody titration curves obtained make it possible to calculate the affinity (Kd) of these different antibodies for the G-protein αi1. This was carried out using the GraphPad Prism software by applying a “one site specific binding” model to the HTRF data.

T4 sequence (P63096 whole entry): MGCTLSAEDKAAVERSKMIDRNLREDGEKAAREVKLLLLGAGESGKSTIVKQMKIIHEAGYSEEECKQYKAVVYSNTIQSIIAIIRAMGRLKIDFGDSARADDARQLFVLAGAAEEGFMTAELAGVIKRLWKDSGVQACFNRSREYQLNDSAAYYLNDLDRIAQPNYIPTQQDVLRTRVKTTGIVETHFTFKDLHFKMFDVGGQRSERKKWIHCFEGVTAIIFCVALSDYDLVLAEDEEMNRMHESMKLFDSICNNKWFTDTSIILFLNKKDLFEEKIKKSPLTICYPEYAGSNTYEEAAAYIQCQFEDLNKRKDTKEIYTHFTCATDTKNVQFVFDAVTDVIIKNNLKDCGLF
T7 sequence (P19086 whole entry): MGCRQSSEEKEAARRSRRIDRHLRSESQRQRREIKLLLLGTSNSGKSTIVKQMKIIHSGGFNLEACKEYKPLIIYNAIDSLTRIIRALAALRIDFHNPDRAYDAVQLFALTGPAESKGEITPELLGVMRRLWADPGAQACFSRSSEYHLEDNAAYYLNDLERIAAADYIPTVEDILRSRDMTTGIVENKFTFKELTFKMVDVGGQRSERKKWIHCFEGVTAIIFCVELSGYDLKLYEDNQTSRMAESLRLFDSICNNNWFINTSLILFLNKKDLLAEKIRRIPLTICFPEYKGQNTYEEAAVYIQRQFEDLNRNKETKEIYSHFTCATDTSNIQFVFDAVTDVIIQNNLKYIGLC
T5 sequence (P08754 whole entry): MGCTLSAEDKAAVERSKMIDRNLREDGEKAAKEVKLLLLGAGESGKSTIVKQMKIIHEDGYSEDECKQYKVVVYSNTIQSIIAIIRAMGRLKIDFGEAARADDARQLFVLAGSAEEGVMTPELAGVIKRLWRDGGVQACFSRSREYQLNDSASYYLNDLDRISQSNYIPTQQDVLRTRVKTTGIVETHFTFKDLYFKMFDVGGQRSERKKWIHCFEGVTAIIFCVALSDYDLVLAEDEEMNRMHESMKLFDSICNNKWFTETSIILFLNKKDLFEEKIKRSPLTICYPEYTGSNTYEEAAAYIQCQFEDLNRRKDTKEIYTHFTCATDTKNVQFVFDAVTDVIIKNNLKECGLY
Sequence of Delta Opioid GPCR (P41143 whole entry): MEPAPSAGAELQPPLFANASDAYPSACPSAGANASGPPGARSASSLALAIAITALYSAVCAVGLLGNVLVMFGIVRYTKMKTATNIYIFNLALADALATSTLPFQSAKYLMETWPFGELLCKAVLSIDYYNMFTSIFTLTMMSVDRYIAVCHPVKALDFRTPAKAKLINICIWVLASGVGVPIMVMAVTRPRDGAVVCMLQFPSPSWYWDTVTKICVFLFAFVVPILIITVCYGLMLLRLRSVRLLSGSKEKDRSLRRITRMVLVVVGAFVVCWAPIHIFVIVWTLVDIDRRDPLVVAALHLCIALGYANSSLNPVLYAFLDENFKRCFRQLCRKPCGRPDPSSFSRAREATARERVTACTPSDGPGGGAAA
T1 sequence (P41143 whole entry): as above
Sequence of Gαi2 (P04899 whole entry): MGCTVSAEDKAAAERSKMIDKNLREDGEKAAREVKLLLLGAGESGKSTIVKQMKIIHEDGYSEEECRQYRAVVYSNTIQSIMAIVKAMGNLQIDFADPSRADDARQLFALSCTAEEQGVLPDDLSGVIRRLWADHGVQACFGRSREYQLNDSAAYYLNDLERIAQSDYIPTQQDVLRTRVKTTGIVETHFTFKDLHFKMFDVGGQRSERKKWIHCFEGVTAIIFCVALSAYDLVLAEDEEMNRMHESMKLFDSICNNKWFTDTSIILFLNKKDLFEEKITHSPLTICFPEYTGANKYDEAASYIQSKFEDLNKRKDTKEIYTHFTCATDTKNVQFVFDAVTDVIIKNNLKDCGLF
Sequence of Gαo (P09471 whole entry): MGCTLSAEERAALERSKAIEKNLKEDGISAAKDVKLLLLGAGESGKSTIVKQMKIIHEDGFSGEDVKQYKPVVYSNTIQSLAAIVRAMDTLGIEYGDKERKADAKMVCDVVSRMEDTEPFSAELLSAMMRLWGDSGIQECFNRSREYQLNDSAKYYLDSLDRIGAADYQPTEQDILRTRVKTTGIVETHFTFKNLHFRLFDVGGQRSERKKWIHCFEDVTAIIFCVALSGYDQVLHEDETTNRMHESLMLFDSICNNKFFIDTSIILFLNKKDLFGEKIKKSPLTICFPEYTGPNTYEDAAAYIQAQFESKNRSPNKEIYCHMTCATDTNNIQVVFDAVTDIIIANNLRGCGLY
Sequence of Gαs (P63092 whole entry): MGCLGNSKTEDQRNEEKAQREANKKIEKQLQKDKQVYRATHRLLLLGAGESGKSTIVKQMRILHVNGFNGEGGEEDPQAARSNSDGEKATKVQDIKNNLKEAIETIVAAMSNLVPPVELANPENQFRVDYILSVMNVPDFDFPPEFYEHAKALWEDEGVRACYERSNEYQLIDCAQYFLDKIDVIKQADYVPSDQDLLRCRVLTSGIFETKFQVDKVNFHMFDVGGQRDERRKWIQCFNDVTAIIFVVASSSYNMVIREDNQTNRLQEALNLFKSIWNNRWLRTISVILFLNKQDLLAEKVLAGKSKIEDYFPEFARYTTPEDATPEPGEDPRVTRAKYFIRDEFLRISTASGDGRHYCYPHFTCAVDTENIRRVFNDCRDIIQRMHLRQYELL

Molecule: Oc1ccc2c3c1O[C@H]1c4[nH]c5ccccc5c4C[C@@]4(O)[C@@H](C2)N(CC2CC2)CC[C@]314 [Naltrindole]
- effect on activation by SNC162 (TR-FRET signal, HTRF ratio) (Delta Opioid GPCR): inhibited

Molecule: C=CCN1C[C@H](C)N([C@@H](c2ccccc2)c2ccc(C(=O)N(CC)CC)cc2)C[C@H]1C [SNC162]
- activation of the DOR receptors overexpressed in the membranes (DOR receptors): caused activation of the DOR receptors

B1: DSV36S: anti-G-protein alpha antibody; VH consists of SEQ ID NO: 14, VL of SEQ ID NO: 15; generated by Cisbio Bioassays (antibody, V domains shown)
VH: EVQLQQSGAELVRPGALVKLSCKASGFNIKDYYMHWVKQRPEQGLEWIGWIDPENGNTIYDPKFQGKASITADTSSNTAYLQLSSLTSEDTAVYYCTRGGGYYSDWYFDVWGAGTTVTVSS
VL: QIVLTQSPAIMSASPGEKVTMTCSASSSVSYMHWYQQKSGTSPKRWIYDTSKLASGVPARFSGSGSGTSYSLTISSMEAEDAATYYCQQWSSNPPITFGAGTKLELK
modifications: Variable domain of the heavy chain (VH); Light Chain Variable Domain (VL)
notes: anti-G-protein alpha antibody; generated by Cisbio Bioassays
- HTRF signal with anti-Twin-Strep-tag-Lumi4 Tb (Gα13): did not give an HTRF signal
- HTRF signal with anti-Twin-Strep-tag-Lumi4 Tb (Gα12): did not give an HTRF signal
- HTRF signal with anti-Twin-Strep-tag-Lumi4 Tb (Gαi1 [1]): positive HTRF signal
- HTRF signal with anti-Twin-Strep-tag-Lumi4 Tb (Gαs): did not give an HTRF signal
- HTRF signal with anti-Twin-Strep-tag-Lumi4 Tb (Gαi2): positive HTRF signal
- HTRF signal with anti-Twin-Strep-tag-Lumi4 Tb (Gαi3): positive HTRF signal
- HTRF signal with anti-Twin-Strep-tag-Lumi4 Tb (Gαq): did not give an HTRF signal
- HTRF signal with anti-Twin-Strep-tag-Lumi4 Tb (Gαz): positive HTRF signal
- HTRF signal with anti-Twin-Strep-tag-Lumi4 Tb (Gαo): positive HTRF signal
- inhibition of the HTRF signal obtained with antibody DSV36S-d2 (Gαi1 [2]): completely inhibited
- inhibition of the HTRF signal obtained with antibody SC13533-d2 (Gαi1 [3]): not capable of inhibiting
- FRET signal with GTPgN-octyl-C2-Europium cryptate (G-proteins α; condition buffer (absence of SNC162)): moderate but significant FRET signal
- FRET signal with GTPgN-octyl-C2-Europium cryptate (G-proteins α; on adding SNC162 10 μM): increase of this FRET signal
- FRET signal with Europium GTPgN-octyl-C2-cryptate (G-proteins α; unactivated membrane preparations, antibodies labeled with d2, FIG. 12): increase of the FRET signal
- signal and affinity depending on the state of G-protein αi1 (Gαi1 [4]; G-protein αi1 bound to a nucleotide (in particular GTPgS) versus empty): higher signal and higher affinity
- capacity for binding the G-protein αi1 (HTRF signal) (Gαi1 [4]; antibodies labeled with d2, in the presence and in the absence of nucleotide (GTPgS or GDP)): capable of binding the G-protein αi1
